Data published in US7070974B1, “Metalloproteases of the neprilysin family” (Universite de Montreal, priority 1999, dated 2006).
Starred links: 1 amine or outer side, 2 acyl side, 3 side chain; linkers in the order of their positions; H or OH if unused. Non-standard residues stand in square brackets, D forms with d. No end group written: not given here. Tyr(3,5-3H) = [3H]c1cc(C[C@H](N[*:1])C(=O)[*:2])cc([3H])c1O[*:3]

Tests used:
Type in all cases: biochemical
[1] = biological target: T1, sNEP (engineered soluble form of NEP) (Oryctolagus cuniculus, UniProt P08049); assay: sNEP enzymatic activity assay with (Tyrosyl-[3,5-3H])(D-Ala2)-Leu5-enkephalin as substrate; conditions: substrate of sNEP; isotope-dilution method
T1 construct: Fusion of a cleavable signal peptide to the ectodomain of neutral endopeptidase; cleavable signal peptide of proopiomelanocortin (replaces cytosolic and transmembrane domains) (N, cleaved yes); made in house; host or cells: LLC-PK1 cells transfected with pRcCMV-sNEP; concentrated culture medium
T1 sequence (P08049 52-750 limits assumed): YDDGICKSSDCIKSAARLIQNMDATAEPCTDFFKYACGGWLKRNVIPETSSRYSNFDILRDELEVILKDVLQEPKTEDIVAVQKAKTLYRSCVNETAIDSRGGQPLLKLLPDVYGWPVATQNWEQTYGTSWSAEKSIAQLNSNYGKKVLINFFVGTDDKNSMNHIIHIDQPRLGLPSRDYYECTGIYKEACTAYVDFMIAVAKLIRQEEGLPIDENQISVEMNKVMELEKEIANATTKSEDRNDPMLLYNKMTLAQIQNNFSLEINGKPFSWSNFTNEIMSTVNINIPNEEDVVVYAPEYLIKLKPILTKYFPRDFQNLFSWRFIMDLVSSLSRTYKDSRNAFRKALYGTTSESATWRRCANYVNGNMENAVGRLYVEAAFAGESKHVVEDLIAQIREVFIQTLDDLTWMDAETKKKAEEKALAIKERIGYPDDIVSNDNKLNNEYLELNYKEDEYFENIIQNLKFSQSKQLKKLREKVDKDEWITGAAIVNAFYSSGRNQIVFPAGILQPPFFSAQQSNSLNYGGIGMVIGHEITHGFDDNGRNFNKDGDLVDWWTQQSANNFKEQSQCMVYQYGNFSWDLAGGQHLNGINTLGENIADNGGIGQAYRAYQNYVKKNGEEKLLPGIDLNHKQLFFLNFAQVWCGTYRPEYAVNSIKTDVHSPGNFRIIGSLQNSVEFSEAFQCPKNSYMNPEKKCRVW

NL1 = biological target: T2, NL1 (Mus musculus, UniProt Q9JLI3); assay: NL-1 enzymatic activity assay with (Tyrosyl-[3,5-3H])(D-Ala2)-Leu5-enkephalin as substrate; set-up: The soluble form of NL-1 was assayed for activity; made in house; host or cells: CHO cells (section 1, pcDNA3-RSV) and HEK 293 cells (section 2, pCDNA3/RSV)
T2 sequence (Q9JLI3 63-765 limits assumed): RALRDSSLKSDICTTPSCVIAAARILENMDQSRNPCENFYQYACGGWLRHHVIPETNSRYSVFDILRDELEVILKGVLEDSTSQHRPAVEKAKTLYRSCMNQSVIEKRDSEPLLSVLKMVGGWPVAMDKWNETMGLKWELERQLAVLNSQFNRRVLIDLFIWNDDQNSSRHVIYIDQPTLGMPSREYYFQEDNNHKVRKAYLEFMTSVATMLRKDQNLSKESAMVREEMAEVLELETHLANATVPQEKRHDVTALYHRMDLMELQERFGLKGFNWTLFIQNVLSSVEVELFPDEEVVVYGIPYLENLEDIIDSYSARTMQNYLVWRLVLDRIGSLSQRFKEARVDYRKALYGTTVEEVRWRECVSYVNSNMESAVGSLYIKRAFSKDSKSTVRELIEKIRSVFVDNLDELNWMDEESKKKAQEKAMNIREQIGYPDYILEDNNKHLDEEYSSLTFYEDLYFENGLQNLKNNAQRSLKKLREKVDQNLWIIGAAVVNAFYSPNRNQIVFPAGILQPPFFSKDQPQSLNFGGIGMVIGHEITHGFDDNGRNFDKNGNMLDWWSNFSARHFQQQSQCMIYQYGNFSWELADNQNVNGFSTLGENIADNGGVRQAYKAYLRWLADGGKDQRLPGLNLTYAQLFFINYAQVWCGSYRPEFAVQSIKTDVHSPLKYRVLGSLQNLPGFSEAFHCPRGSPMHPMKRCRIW
Method: (§1) Extracts of cellular proteins and culture media were assayed for enzymatic activity. Two tests were performed. The first used [^3H]-Tyr-(D)Ala2-Leu-enkephalin as substrate and was performed according to Lemay et al., (1989). The second used bradykinin as substrate and was performed as described by Raut et al. (1999).
NL1 activity was monitored and compared to sNEP activity using (Tyrosyl-[3,5-^3H])(D-Ala2)-Leu5-enkephalin (50 Ci/mmol) (Research Products International Inc.), as already described (Dion 1995; Devault 1988). Km values were determined by the isotope-dilution method.

soluble form of NL-3 = biological target: T3, soluble form of NL-3 (Homo sapiens, UniProt O95672); assay: Soluble NL-3 activity assay with [3H]-Tyr-(D)Ala2-Leu-enkephalin as substrate; conditions: soluble NL-3 from the NL-1 amino-terminal fusion
T3 construct: the ectodomain of NL-3 (from the third cysteine to the end) was spliced to NL-1 amino-terminal domain; mouse NL-1 amino-terminal domain (initiator methionine to the furin site) (N); made in house; host or cells: COS-1 and HEK 293 cells transfected with pRcCMV; spent culture medium
T3 sequence (O95672 83-775 limits assumed): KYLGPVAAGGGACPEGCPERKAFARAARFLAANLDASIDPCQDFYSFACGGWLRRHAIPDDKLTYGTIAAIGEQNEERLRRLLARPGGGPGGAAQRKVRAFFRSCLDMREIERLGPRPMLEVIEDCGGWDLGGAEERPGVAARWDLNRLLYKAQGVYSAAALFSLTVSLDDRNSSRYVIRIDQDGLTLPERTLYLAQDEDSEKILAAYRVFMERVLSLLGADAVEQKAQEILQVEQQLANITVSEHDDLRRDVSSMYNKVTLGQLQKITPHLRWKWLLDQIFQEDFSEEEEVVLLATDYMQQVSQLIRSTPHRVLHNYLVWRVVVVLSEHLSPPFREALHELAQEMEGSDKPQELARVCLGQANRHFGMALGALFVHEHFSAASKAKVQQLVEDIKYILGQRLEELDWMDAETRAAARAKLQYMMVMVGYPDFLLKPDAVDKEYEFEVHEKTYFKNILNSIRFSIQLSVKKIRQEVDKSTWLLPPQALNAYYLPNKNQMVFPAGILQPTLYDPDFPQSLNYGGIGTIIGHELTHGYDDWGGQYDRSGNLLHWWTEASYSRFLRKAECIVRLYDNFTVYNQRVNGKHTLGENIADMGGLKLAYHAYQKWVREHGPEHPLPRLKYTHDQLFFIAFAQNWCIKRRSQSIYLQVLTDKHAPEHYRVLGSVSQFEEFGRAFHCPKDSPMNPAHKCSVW
Method: as §1
The observation that NL-1 ectodomain was secreted, possibly through cleavage of the transmembrane segment by furin, raised the possibility to promote secretion of exogenous proteins that could be spliced to NL-1 amino-terminal domain (from initiator methionine to the furin site). To test this hypothesis, the ectodomain of NL-3 (from the third cysteine to the end) was spliced to NL-1 amino-terminal domain using a PCR strategy and the recombinant DNA cloned in expression vector pRcCMV. The fusion protein was expressed by transfection of the vector in COS-1 and HEK 293 cells. The culture media of transfected cells was analyzed by immunoblotting using the mouse antiserum against NL-3.

Substance: (Tyrosyl-[3,5-^3H])(D-Ala2)-Leu5-enkephalin ([Tyr(3,5-3H)][dA]GFL) [D-Ala2-Leu5-enkephalin]
- Km [1]: 73 µM
- Km value of NL1 relative to NEP (NL1; fold lower for NL1 than NEP): 4- to 5 fold
- Km (NL1; substrate of soluble NL-1, isotope-dilution method): 18 µM
- activity of soluble NL-3 on the substrate (soluble form of NL-3): No activity
